Measurements published in patent US20120201792A1, “METHODS AND PRODUCTS FOR MANIPULATING HEMATOPOIETIC STEM CELLS” (The General Hospital Corporation, priority 2000, published 2012).

T1: SC-GPR (Homo sapiens, UniProt Q15391)
T1 sequence (Q15391 1-338): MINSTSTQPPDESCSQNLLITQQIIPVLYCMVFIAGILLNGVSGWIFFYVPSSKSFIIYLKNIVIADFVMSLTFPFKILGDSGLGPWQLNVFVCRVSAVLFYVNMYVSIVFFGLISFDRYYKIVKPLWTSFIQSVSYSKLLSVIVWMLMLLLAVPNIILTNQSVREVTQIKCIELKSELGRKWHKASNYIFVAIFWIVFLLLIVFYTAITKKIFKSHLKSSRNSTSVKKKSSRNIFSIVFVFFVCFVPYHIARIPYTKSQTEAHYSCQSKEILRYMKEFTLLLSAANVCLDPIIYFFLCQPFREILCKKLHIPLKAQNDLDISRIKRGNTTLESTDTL

T2: KIAA0001 receptor (Homo sapiens, UniProt Q15391)
T2 sequence (Q15391 1-338): T1 sequence (Q15391 1-338)

B1: TARC: known chemokine screened as potential SC-GPR ligand (protein)
chain: ARGTNVGRECCLEYFKGAIPLRKLKTWYQTSEDCSRDAIVFVTVQGRAICSDPNNKRVKNAVKYLQSLERS
B2: MIP1b: known chemokine screened as potential SC-GPR ligand (protein)
chain: APMGSDPPTACCFSYTARKLPRNFVVDYYETSSLCSQPAVVFQTKRSKQVCADPSESWVQEYVYDLELN

What was measured:
[1] = target: T1, SC-GPR; assay: Intracellular calcium flux (Fura-2) in Cos-7 cells expressing SC-GPR; conditions: Fura-2 loaded cells expressing SC-GPR, fluorescence ratio F340/F380
[2] = target: T2, KIAA0001 receptor; conditions: Chambers et al., 2000 J Biol Chem; cited from earlier work

Row | Molecule | calcium flux / activation of SC-GPR expressing cells [1] | binding to the receptor and induction of calcium flux [2]
1 | Nc1ncnc2c1ncn2[C@@H]1O[C@H](COP(=O)(O)OP(=O)(O)OP(=O)(O)O)[C@@H](O)[C@H]1O [ATP] | failed to result in activation | –
2 | CCCCC/C=C\C[C@@H](O)/C=C/C=C/C=C\[C@@H](O)CCCC(=O)O [LTB4] | failed to result in activation | –
3 | CCCCCCCCCCCCCCCCOC[C@H](COP(=O)([O-])OCC[N+](C)(C)C)OC(C)=O [PAF] | failed to result in activation | –
4 | CC(=O)N[C@H]1[C@@H](OP(=O)(O)OP(=O)(O)OC[C@H]2O[C@@H](n3ccc(=O)[nH]c3=O)[C@H](O)[C@@H]2O)O[C@H](CO)[C@@H](O)[C@@H]1O [UDP-N-acetylglucosamine] | – | bind to the receptor and induce calcium flux
5 | O=C(O)[C@H]1O[C@H](OP(=O)(O)OP(=O)(O)OC[C@H]2O[C@@H](n3ccc(=O)[nH]c3=O)[C@H](O)[C@@H]2O)[C@H](O)[C@@H](O)[C@@H]1O [UDP-glucuronic acid] | – | bind to the receptor and induce calcium flux
6 | IL-8: known chemokine screened as potential SC-GPR ligand | failed to result in activation | –
7 | MCP 1: known chemokine screened as potential SC-GPR ligand | failed to result in activation | –
8 | MCP 3: printed as "MCP 1, 3, 4"; known chemokine screened | failed to result in activation | –
9 | MCP 4: printed as "MCP 1, 3, 4"; known chemokine screened | failed to result in activation | –
10 | MIP1a: known chemokine screened as potential SC-GPR ligand | failed to result in activation | –
11 | PF4: known chemokine screened as potential SC-GPR ligand | failed to result in activation | –
12 | RANTES: known chemokine screened as potential SC-GPR ligand | failed to result in activation | –
13 | SDF-1: known chemokine screened as potential SC-GPR ligand | failed to result in activation | –
14 | B1 | failed to result in activation | –
15 | B2 | failed to result in activation | –
